Assay results from article PMC8586658 (Cancer Science, 2021).

Biological target: T1, mouse IL‐2Rα on 293T cells (293Tα) (mouse, UniProt P01590 22-268)
T1 sequence: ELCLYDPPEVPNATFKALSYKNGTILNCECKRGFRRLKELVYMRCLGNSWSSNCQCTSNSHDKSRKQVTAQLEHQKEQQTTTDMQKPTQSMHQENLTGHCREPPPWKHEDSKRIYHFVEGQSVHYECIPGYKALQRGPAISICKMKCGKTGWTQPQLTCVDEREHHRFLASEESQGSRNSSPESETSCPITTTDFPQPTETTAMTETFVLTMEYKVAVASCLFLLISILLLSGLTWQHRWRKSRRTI
Assay: binding of NanoLuc fusion proteins to cells

B1: Mutakine‐6 (MK‐6), IL‐2 K35A/R38A/K43A/Y45A on the MK‐0 template, fused to NanoLuc (ligand)
chain: APASSSTKKTQLQLEHLLLDLQMILNGINNYKNPALTAMLTFAFAMPKKATELKHLQCLEEELKPLEEVLNLAQSKNFHLRPRDLISNINVIVLELKGSETTFMCEYADETATIVEFLNRWITFAQSIISTLT
mouse 293Tα/293T ratio: 1.8 ratio
